Results reported in patent US11505783B2, “Differentiation of human embryonic stem cells” (Janssen Biotech, Inc., priority 2007, dated 2022).

Experiments:
Format in all cases: cell-based
[1] = test system: human embryonic stem cell line H1; assay: Real-time PCR of markers, Noggin at stages 3 and/or 4 with ALK5 inhibitor II at stages 4 and 5 (Example 7)
Text: FIGS. 8A-8D depict a phase contrast image of the cultures according to the above protocol. In some of the cultures, stage 5 was extended from 3 days to 21 days. By day 10-12 of culture in stage 5 media, there were distinct clusters of cells resembling human islets present throughout the culture plate. FIGS. 8A-8B show images of day 6 cultures in stage 5 while FIGS. 8C-8D show images of day 12 stage 5 cultures. Some of the clusters were manually removed, plated on 1:30 […]-coated plates in stage 5 media. After 2 days of incubation, the clusters were stained for insulin and glucagon. The majority of the cells in the clusters as shown in FIGS. 9A-9B were positive for human insulin. In order to further optimize the dose of the BMP inhibitor, Noggin; cultures were treated at stage 2-4 with 0, 10, 50, or 100 ng/ml of Noggin. FIG. 10 depicts expression of NGN3 at stage 4 for cultures treated with varying doses of Noggin at stages 2-4.

[2] = test system: human embryonic stem cell line H1; assay: Real-time PCR of markers, Noggin at stage 3 with ALK5 inhibitor II at stages 4 and 5 (Example 6)
Method: Cells of the human embryonic stem cell line H1, at passage 41 were cultured on […] ™ coated dishes (1:30 dilution) and exposed to DMEM/F12 medium supplemented with 0.5% FBS, and 100 ng/ml Activin-A (R&D Systems, MN) plus 20 ng/ml WNT-3a (Catalog #1324-WN-002, R&D Systems, MN), for two days followed by treatment with DMEM/F12 media supplemented with 2% FBS and 100 ng/ml Activin-A (AA) for an additional two days. Next the cultures were treated with DMEM/F12+2% FBS+20 ng/ml FGF7+0.25 μm Cyclopamine-KAAD (#239804, Calbiochem, CA) for three days followed by four day incubation in DMEM/F12+1% B27 (Invitrogen, CA)+20 ng/ml FGF7+0.25 μm Cyclopamine-KAAD+2 μm Retinoic acid (RA) (Sigma, MO)+0-500 ng/ml of Noggin (R & D Systems, MN).

[3] = test system: human embryonic stem cell line H1; assay: Real-time PCR of markers, Noggin at stages 3-4, Netrin-4 and ALK5 inhibitor II at stage 4 (Example 8)
[4] = Noggin at both stages 3 and 4, compared to untreated samples
[5] = omission of Noggin at stage 4, Netrin-4 plus Alk5 inhibitor added, end of stage 5

Molecule | expression of insulin and glucagons ([1]; 100 ng/ml Noggin at stage 3+4 plus ALK5 inhibitor II, stages 4-5) | expression of NGN3 [1, 4] | expression of albumin and CDX2 [1, 4] | Noggin concentration resulting in maximal expression of NGN3 at stage 4 ([1]; cultures treated at stage 2-4 with 0, 10, 50, or 100 ng/ml) | expression of albumin and CDX2 ([2]; 100 ng/ml at stage 3, compared to untreated samples) | expression of insulin and glucagon ([2]; 100 ng/ml at stage 3, end of stage 4, 1 μm ALK5 inhibitor II at stages 4 and 5) | expression of PDX-1 ([2]; 500 ng/ml at stage 3) | expression of endocrine markers, along with albumin and CDX2 ([2]; 500 ng/ml at stage 3) | expression of NGN3, NKX2.2, and NeuroD [3, 5] | expression of insulin and glucagon [3, 5] | expression of NGN3, NeuroD, and Pax4 ([3]; 100 ng/ml Netrin-4 and ALK5 inhibitor II at stage 4 plus 100 ng/ml Noggin at stage 3 and 4)
Noggin: recombinant human Noggin, BMP inhibitor (R & D Systems) (protein, UniProt Q13253 28-232, looked up) Noggin: QHYLHIRPAPSDNLPLVDLIEHPDPIFDPKEKDLNETLLRSLLGGHYDPGFMATSPPEDRPGGGGGAAGGAEDLAELDQLLRQRPSGAMPSEIKGLEFSEGLAQGKKQRLSKKLRRKLQMWLWSQTFCPVLYAWNDLGSRFWPRYVKVGSCFSKRSCSVPEGMVCKPSKSVHLTVLRWRCQRRGGQRCGWIPIQYPIISECKCSC | dramatically enhanced | significantly enhanced | significantly suppressing | 50 to 100 ng/mL | significantly suppressing | marginally enhanced | did not affect | significantly diminish | significantly reduce | moderately affecting | 
Netrin-4: netrin protein added at 100 ng/ml (R&D Systems) (protein, UniProt Q9HB63 19-628, looked up) Netrin-4: GLSGVAGVSSRCEKACNPRMGNLALGRKLWADTTCGQNATELYCFYSENTDLTCRQPKCDKCNAAYPHLAHLPSAMADSSFRFPRTWWQSAEDVHREKIQLDLEAEFYFTHLIVMFKSPRPAAMVLDRSQDFGKTWKPYKYFATNCSATFGLEDDVVKKGAICTSKYSSPFPCTGGEVIFKALSPPYDTENPYSAKVQEQLKITNLRVQLLKRQSCPCQRNDLNEEPQHFTHYAIYDFIVKGSCFCNGHADQCIPVHGFRPVKAPGTFHMVHGKCMCKHNTAGSHCQHCAPLYNDRPWEAADGKTGAPNECRTCKCNGHADTCHFDVNVWEASGNRSGGVCDDCQHNTEGQYCQRCKPGFYRDLRRPFSAPDACKPCSCHPVGSAVLPANSVTFCDPSNGDCPCKPGVAGRRCDRCMVGYWGFGDYGCRPCDCAGSCDPITGDCISSHTDIDWYHEVPDFRPVHNKSEPAWEWEDAQGFSALLHSGKCECKEQTLGNAKAFCGMKYSYVLKIKILSAHDKGTHVEVNVKIKKVLKSTKLKIFRGKRTLYPESWTDRGCTCPILNPGLEYLVAGHEDIRTGKLIVNMKSFVQHWKPSLGRKVMDILKRECK |  |  |  |  |  |  |  |  |  |  | dramatically enhanced
